From patent US20060251655A1

B1: W897stop (C-terminal deletion variant of ADAMTS-13, FLAG appended) (protein)
chain: PSHFQQSCLQALEPQAVSSYLSPGAPLKGRPPSPGFQRQRQRQRRAAGGILHLELLVAVGPDVFQAHQEDTERYVLTNLNIGAELLRDPSLGAQFRVHLVKMVILTEPEGAPNITANLTSSLLSVCGWSQTINPEDDTDPGHADLVLYITRFDLELPDGNRQVRGVTQLGGACSPTWSCLITEDTGFDLGVTIAHEIGHSFGLEHDGAPGSGCGPSGHVMASDGAAPRAGLAWSPCSRRQLLSLLSAGRARCVWDPPRPQPGSAGHPPDAQPGLYYSANEQCRVAFGPKAVACTFAREHLDMCQALSCHTDPLDQSSCSRLLVPLLDGTECGVEKWCSKGRCRSLVELTPIAAVHGRWSSWGPRSPCSRSCGGGVVTRRRQCNNPRPAFGGRACVGADLQAEMCNTQACEKTQLEFMSQQCARTDGQPLRSSPGGASFYHWGAAVPHSQGDALCRHMCRAIGESFIMKRGDSFLDGTRCMPSGPREDGTLSLCVSGSCRTFGCDGRMDSQQVWDRCQVCGGDNSTCSPRKGSFTAGRAREYVTFLTVTPNLTSVYIANHRPLFTHLAVRIGGRYVVAGKMSISPNTTYPSLLEDGRVEYRVALTEDRLPRLEEIRIWGPLQEDADIQVYRRYGEEYGNLTRPDITFTYFQPKPRQAWVWAAVRGPCSVSCGAGLRWVNYSCLDQARKELVETVQCQGSQQPPAWPEACVLEPCPPYWAVGDFGPCSASCGGGLRERPVRCVEAQGSLLKTLPPARCRAGAQQPAVALETCNPQPCPARWEVSEPSSCTSAGGAGLALENETCVPGADGLEAPVTEGPGSVDEKLPAPEPCVGMSCPPGWGHLDATSAGEKAPSPWGSIRTGAQAAHVWDYKDDDDK
B2: W746stop (C-terminal deletion variant of ADAMTS-13, FLAG appended) (protein)
chain: PSHFQQSCLQALEPQAVSSYLSPGAPLKGRPPSPGFQRQRQRQRRAAGGILHLELLVAVGPDVFQAHQEDTERYVLTNLNIGAELLRDPSLGAQFRVHLVKMVILTEPEGAPNITANLTSSLLSVCGWSQTINPEDDTDPGHADLVLYITRFDLELPDGNRQVRGVTQLGGACSPTWSCLITEDTGFDLGVTIAHEIGHSFGLEHDGAPGSGCGPSGHVMASDGAAPRAGLAWSPCSRRQLLSLLSAGRARCVWDPPRPQPGSAGHPPDAQPGLYYSANEQCRVAFGPKAVACTFAREHLDMCQALSCHTDPLDQSSCSRLLVPLLDGTECGVEKWCSKGRCRSLVELTPIAAVHGRWSSWGPRSPCSRSCGGGVVTRRRQCNNPRPAFGGRACVGADLQAEMCNTQACEKTQLEFMSQQCARTDGQPLRSSPGGASFYHWGAAVPHSQGDALCRHMCRAIGESFIMKRGDSFLDGTRCMPSGPREDGTLSLCVSGSCRTFGCDGRMDSQQVWDRCQVCGGDNSTCSPRKGSFTAGRAREYVTFLTVTPNLTSVYIANHRPLFTHLAVRIGGRYVVAGKMSISPNTTYPSLLEDGRVEYRVALTEDRLPRLEEIRIWGPLQEDADIQVYRRYGEEYGNLTRPDITFTYFQPKPRQAWVWAAVRGPCSVSCGAGLRWVNYSCLDQARKELVETVQCQGSQQPPAWPEACVLEPCPPYWDYKDDDDK
B3: W808stop (C-terminal deletion variant of ADAMTS-13, FLAG appended) (protein)
chain: PSHFQQSCLQALEPQAVSSYLSPGAPLKGRPPSPGFQRQRQRQRRAAGGILHLELLVAVGPDVFQAHQEDTERYVLTNLNIGAELLRDPSLGAQFRVHLVKMVILTEPEGAPNITANLTSSLLSVCGWSQTINPEDDTDPGHADLVLYITRFDLELPDGNRQVRGVTQLGGACSPTWSCLITEDTGFDLGVTIAHEIGHSFGLEHDGAPGSGCGPSGHVMASDGAAPRAGLAWSPCSRRQLLSLLSAGRARCVWDPPRPQPGSAGHPPDAQPGLYYSANEQCRVAFGPKAVACTFAREHLDMCQALSCHTDPLDQSSCSRLLVPLLDGTECGVEKWCSKGRCRSLVELTPIAAVHGRWSSWGPRSPCSRSCGGGVVTRRRQCNNPRPAFGGRACVGADLQAEMCNTQACEKTQLEFMSQQCARTDGQPLRSSPGGASFYHWGAAVPHSQGDALCRHMCRAIGESFIMKRGDSFLDGTRCMPSGPREDGTLSLCVSGSCRTFGCDGRMDSQQVWDRCQVCGGDNSTCSPRKGSFTAGRAREYVTFLTVTPNLTSVYIANHRPLFTHLAVRIGGRYVVAGKMSISPNTTYPSLLEDGRVEYRVALTEDRLPRLEEIRIWGPLQEDADIQVYRRYGEEYGNLTRPDITFTYFQPKPRQAWVWAAVRGPCSVSCGAGLRWVNYSCLDQARKELVETVQCQGSQQPPAWPEACVLEPCPPYWAVGDFGPCSASCGGGLRERPVRCVEAQGSLLKTLPPARCRAGAQQPAVALETCNPQPCPARWDYKDDDDK

Molecular target: von Willebrand factor (vWF), prepared from plasma cryo fraction, P04275

Question: Which “vWF cleaving activity (SDS-PAGE)” value does the source give for B1 here?
Answer: The value was “vWF cleaving activity was clearly recognized from the full-length molecule to W688stop molecule”.

Question: B2 was tested. Which “vWF cleaving activity (SDS-PAGE)” value did it give?
Answer: Its value is “vWF cleaving activity was clearly recognized from the full-length molecule to W688stop molecule”.

Question: For B3, which “vWF cleaving activity (SDS-PAGE)” value is on record?
Answer: Its value is “vWF cleaving activity was clearly recognized from the full-length molecule to W688stop molecule”.
